From PMC10783015

What was measured:
[1] = target: T1, CRP (Salmonella enterica serovar Typhimurium ATCC 14028) (UniProt P0A2T6); assay: SPR; details: EMSA: 100 ng DNA in 1x TBE, 20 uL, 45 min at room temperature, 12% native PAGE, PargS competitor, 20 uM cAMP for CRP; SPR: streptavidin chip with biotinylated …
T1 sequence: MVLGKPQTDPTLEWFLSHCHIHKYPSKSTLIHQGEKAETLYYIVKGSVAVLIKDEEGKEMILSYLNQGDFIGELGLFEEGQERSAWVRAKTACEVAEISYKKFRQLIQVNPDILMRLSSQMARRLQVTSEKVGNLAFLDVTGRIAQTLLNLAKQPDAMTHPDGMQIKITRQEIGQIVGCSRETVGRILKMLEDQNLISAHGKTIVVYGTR

[2] = target: T2, H-NS (Salmonella enterica serovar Typhimurium ATCC 14028) (UniProt P0A1S2); assay: SPR; details: EMSA: 100 ng DNA in 1x TBE, 20 uL, 45 min at room temperature, 12% native PAGE, PargS competitor, 20 uM cAMP for CRP; SPR: streptavidin chip with biotinylated …
T2 sequence: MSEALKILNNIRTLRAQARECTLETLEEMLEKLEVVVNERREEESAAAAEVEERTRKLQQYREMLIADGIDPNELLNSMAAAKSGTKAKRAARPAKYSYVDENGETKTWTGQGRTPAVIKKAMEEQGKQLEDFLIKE

| Sequence | binding [1] | Kd [1] [nM] | binding [2] |
| --- | --- | --- | --- |
| CTTATGTCGGTCATTGCCGTAGCGCTGCCGACGATCTTATAGCTATTGAGAACTCTCGTTTCACAACCTATGTTTTAATTTCAAAACGATCAATAATGAAACTTATGTTTTGTTATGGGTATCACATTTCGAATTTCATAATCCTGGCGTTTTTTATCGTT (double strand) [PiolT1 SPR] | no binding | – | – |
| AAGAGCCTGAATATTCACCGGAATACCTTACGTTTATGAAGCGGGCTGTATTGCCCGCGCCAGTTTAAGAATTAGGGCGGGAGTATACTGCAAATGCCCGTTGGCGTCAGCATTGCGCGCGCGGCGCGTCGCCTGAAATATACGCAACAATAATCTGCATAAGCATTCAATAAACGCCCAATCAAATCAAAGGTTG (double strand) [PargS SPR] | – | 1 | no binding |
